1 molecule from US20200069736A1 (WHITEHEAD INSTITUTE FOR BIOMEDICAL RESEARCH, published 2020) can be followed below.

For the experiment, the target named is T1, murine Class II MHC molecules on wild-type C57BL/6 mouse B cells (mouse, UniProt P14434 24-256; P14483 28-265).
T1 construct: whole, on cells; Endogenous MHC class II on B cells immobilised on streptavidin beads through biotinylated anti-CD19; also called mouse MHC class II
T1 sequence (MHC II alpha, looked up): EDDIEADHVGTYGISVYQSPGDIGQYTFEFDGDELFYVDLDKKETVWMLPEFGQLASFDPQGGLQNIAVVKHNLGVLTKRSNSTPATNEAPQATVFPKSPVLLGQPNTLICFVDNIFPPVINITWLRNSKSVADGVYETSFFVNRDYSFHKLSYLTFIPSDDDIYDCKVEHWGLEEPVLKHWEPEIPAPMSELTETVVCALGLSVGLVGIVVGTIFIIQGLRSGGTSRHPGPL
T1 sequence (MHC II beta, looked up): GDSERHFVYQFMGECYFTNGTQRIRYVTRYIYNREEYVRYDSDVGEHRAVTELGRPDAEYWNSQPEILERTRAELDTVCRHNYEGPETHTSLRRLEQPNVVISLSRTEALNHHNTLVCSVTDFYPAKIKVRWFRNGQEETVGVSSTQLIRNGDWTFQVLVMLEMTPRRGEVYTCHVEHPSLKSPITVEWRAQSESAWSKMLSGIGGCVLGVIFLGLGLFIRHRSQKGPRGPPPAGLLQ
The experiment in a line: B cell-red blood cell binding assay: B cells on magnetic beads, bound red cells detected by anti-hemoglobin immunoblot. On the procedure: FIG. 25 is a diagram showing conjugation of single domain antibody to engineered red blood cells and cell type-specific targeting. (A) Mouse mature red blood engineered to contain 3G-myc-GPA on the cell surface were incubated with. Sortase with or without VHH7-LPETG (SEQ ID NO: 44): a single domain antibody with binding specificity for mouse MHC class II molecules and sortase motif complementary to 3G. […] (B) Either wild type mouse B cells (expressing MHC class II) or B cells derived from MHC class II knock-out mice were immobilized on magnetic streptavidin beads via biotinylated α-CD19 antibody, incubated with 3G-myc-GPA red blood cells or red cells that contained sortase-labeled VHH7-LPETG (SEQ ID NO: 44)-myc GPA on their surface, and washed. Immobilization of B cells in all experimental set-ups was tested by presence of CD19 in α-CD19 immunoblot and binding between B cells and red blood cells was evaluated by the presence of hemoglobin in the α-hemoglobin immunoblot. (C) Schematic for experiment shown in (B); LPETG: (SEQ ID NO: 44).
A B cell—red blood cell binding assay was performed as follows. B cells were isolated from either wild-type C57BL/6 mice or mice knock-out for MI-IC class II using Dynabeads Mouse CD43 (Untouched B cells) (Life Technologies) according to manufacturer's recommendations. […]
A general note: A western blot detects proteins with antibodies after separation by electrophoresis.

B1: 3G-myc-hGPA on the surface of mouse red blood cells, not labeled with VHH7 (other, human, not shown: small tags and cut ends)
chain (part 1 of 2): GGG
chain (part 2 of 2): LSTTEVAMHTSTSSSVTKSYISSQTNDTHKRDTYAATPRAHEVSEISVRTVYPPEEETGERVQLAHHFSEPEITLIIFGVMAGVIGTILLISYGIRRLIKKSPSDVKPLPSPDTDVPLSSVEIENPETSDQ
notes: mature; also called 3G-myc-GPA red blood cells; unmodified red cells
Consider B1, for which the binding result is “no binding”.
